Test results: paper PMC2606027

Key:
[1] = molecular target: LEDGF IBD fused to Gal4 transcription activation domain (WT prey); experiment: yeast two-hybrid (β-galactosidase reporter); details: S. cerevisiae Y187; quadruplicate measurements; read off a plot
[2] = molecular target: KKK HIV-1 IN (D6K/E10K/E13K) fused to the DNA binding domain of Gal4 (HIV-1); experiment: two-hybrid; Gal4 DBD-IN bait and Gal4 AD-LEDGF IBD prey in S. cerevisiae Y187; β-galactosidase activity relative to WT bait/WT prey (100%); background: WT IN with empty prey vector
[3] = molecular target: Full-length HIV-1 IN fused to the DNA binding domain of Gal4 (WT bait) (HIV-1); experiment: two-hybrid

Substance | percent of parent [1] | other results
Full-length HIV-1 IN fused to the DNA binding domain of Gal4 (WT bait) E10K; E13K | 1.3 % of WT/WT | –
Full-length HIV-1 IN fused to the DNA binding domain of Gal4 (WT bait) D6K; E10K; E13K | 1.2 % of WT/WT | –
EEE LEDGF IBD (K401E/K402E/R405E) fused to Gal4 transcription activation domain (domain or fragment) | – | β-galactosidase activity relative to WT-WT [2]: 40 % of WT-WT
AAA LEDGF IBD (K401A/K402A/R405A) fused to Gal4 transcription activation domain (domain or fragment) | – | binding relative to WT (β-galactosidase activity) [3]: 5 % of WT
